To fix the notation:
B1: PKD2L1 (parent)
chain: SGPEAARAGGWVSGEEFYMLTRRV
B2: KLHL13 (parent)
chain: TGEFLKLPFERLAFVLSSNSLKHC

The record followed here is the supplement of paper PMC10567573.
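Also: lentivirally expressed fusions sorted by FACS into six bins by GFP to DsRed ratio, PSI derived from sequencing read proportions per bin multiplied by bin number.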

One data set covers variants of B1. The experiment in a line: protein stability index of a GFP-peptide fusion (GPS, HEK-293T) (PSI 1-6); higher = more stable. The note with it: c terminus: a fixed tail appended.
For SGPEAGRAGGWVSGEEFYMLTRRV [A6G], the protein stability index was 3.16.

With SGPEAHRAGGWVSGEEFYMLTRRV [A6H], the protein stability index stood at 2.24.

For the variant SGPEAAFAGGWVSGEEFYMLTRRV [R7F], the protein stability index was found to be 2.9.

On to SGPEAAYAGGWVSGEEFYMLTRRV [R7Y], for which the protein stability index was determined as 2.31.

For the variant SGPEAAPAGGWVSGEEFYMLTRRV [R7P], the protein stability index came out at 2.68.

On to SGPEAARAGGWVSGEEFYALTRRV [M19A], for which the protein stability index came to 2.13.

Regarding SGPEAARAGGWVSGEEFYMLTRRW [V24W], the protein stability index came out at 2.14.

With SGPEAARAGGWVSGEEFYMLTRRK [V24K], the protein stability index is 3.63.

For SGPEAARAGGWVSGEPFYMLTRRV [E16P], the protein stability index turned out to be 1.78.

As to SGPEAARAGGWVSGEEFVMLTRRV [Y18V], the protein stability index worked out at 2.89.

In the case of SGPEAARAGGWVSGEEFHMLTRRV [Y18H], the protein stability index was found to be 3.46.

In the case of SGPEAARAGGWVSGEEFSMLTRRV [Y18S], the protein stability index is 3.4.

For SGAEAARAGGWVSGEEFYMLTRRV [P3A], the protein stability index was determined as 2.38.

SGREAARAGGWVSGEEFYMLTRRV [P3R]: the protein stability index was found to be 1.78.

Take SGPEAARAGGWVIGEEFYMLTRRV [S13I]: the protein stability index is 1.47.

For SGPEAARAGGWVYGEEFYMLTRRV [S13Y], the protein stability index is 2.07.

Consider SGPEAARAGGWVWGEEFYMLTRRV [S13W], for which the protein stability index turned out to be 2.17.

In the case of SGPEAARAGGWVAGEEFYMLTRRV [S13A], the protein stability index is 1.96.

On to SGPEAARAGGWVSGEEFYMSTRRV [L20S], for which the protein stability index stood at 3.61.

Take SGPEAARAHGWVSGEEFYMLTRRV [G9H]: the protein stability index was 2.03.

As to SGPEAARAGGWVSGEEFYMLTRPV [R23P], the protein stability index came out at 2.62.

Turning to SGPEAARAGGWVSGEEFYMLTRGV [R23G], the protein stability index was 2.93.

Take SGPEAARAGGWVSGCEFYMLTRRV [E15C]: the protein stability index turned out to be 1.54.

Regarding SGPEAARAGGWVSGYEFYMLTRRV [E15Y], the protein stability index is 1.65.

For the variant PGPEAARAGGWVSGEEFYMLTRRV [S1P], the protein stability index amounted to 2.35.

For SGPEAARAGGCVSGEEFYMLTRRV [W11C], the protein stability index is 2.79.

SGPEAARAGGYVSGEEFYMLTRRV [W11Y]: the protein stability index is 2.75.

Regarding SGPETARAGGWVSGEEFYMLTRRV [A5T], the protein stability index was determined as 1.82.

For SGPEAARAGNWVSGEEFYMLTRRV [G10N], the protein stability index worked out at 2.55.

As to SGPEAARAGGWVSQEEFYMLTRRV [G14Q], the protein stability index turned out to be 2.57.

In the case of SGPEAARAGGWVSHEEFYMLTRRV [G14H], the protein stability index stood at 2.4.

For SFPEAARAGGWVSGEEFYMLTRRV [G2F], the protein stability index came out at 1.83.

With SWPEAARAGGWVSGEEFYMLTRRV [G2W], the protein stability index is 2.91.

For the variant SGPEAARAGGWVSGEEFYMLTLRV [R22L], the protein stability index came to 3.52.

As for SGPEAARAGGWVSGEEFYMLTPRV [R22P], the protein stability index worked out at 2.44.

SGPEAARAGGWVSGEEFYMLTYRV [R22Y]: the protein stability index turned out to be 2.41.

Take SGPEAARAGGWQSGEEFYMLTRRV [V12Q]: the protein stability index was 2.49.

Turning to SGPEAARAGGWRSGEEFYMLTRRV [V12R], the protein stability index was determined as 2.86.

SGPEAARAGGWVSGEEFYMLHRRV [T21H]: the protein stability index was found to be 2.27.

Regarding SGPEAARAGGWVSGEEFYMLSRRV [T21S], the protein stability index is 2.62.

The variants in the next data set derive from B2. Described as above. The note with it: c terminus: a fixed tail appended.
As to TGNFLKLPFERLAFVLSSNSLKHC [E3N], the protein stability index came to 5.52.

TGQFLKLPFERLAFVLSSNSLKHC [E3Q]: the protein stability index was found to be 4.44.

As for TGRFLKLPFERLAFVLSSNSLKHC [E3R], the protein stability index is 2.35.

For the variant TGPFLKLPFERLAFVLSSNSLKHC [E3P], the protein stability index was 2.66.

As to TGAFLKLPFERLAFVLSSNSLKHC [E3A], the protein stability index was 2.21.

With TGGFLKLPFERLAFVLSSNSLKHC [E3G], the protein stability index amounted to 4.77.

With TGTFLKLPFERLAFVLSSNSLKHC [E3T], the protein stability index stood at 1.

In the case of TGDFLKLPFERLAFVLSSNSLKHC [E3D], the protein stability index turned out to be 3.15.

For the variant TGVFLKLPFERLAFVLSSNSLKHC [E3V], the protein stability index came out at 2.28.

Take TGYFLKLPFERLAFVLSSNSLKHC [E3Y]: the protein stability index turned out to be 3.14.

Take TGHFLKLPFERLAFVLSSNSLKHC [E3H]: the protein stability index worked out at 2.67.

Take TGEFQKLPFERLAFVLSSNSLKHC [L5Q]: the protein stability index was found to be 2.06.

Regarding TGEFTKLPFERLAFVLSSNSLKHC [L5T], the protein stability index turned out to be 2.54.

In the case of TGEFDKLPFERLAFVLSSNSLKHC [L5D], the protein stability index stood at 2.48.

For TGEFYKLPFERLAFVLSSNSLKHC [L5Y], the protein stability index turned out to be 1.8.

In the case of TGEFNKLPFERLAFVLSSNSLKHC [L5N], the protein stability index was 1.52.

On to TGEFCKLPFERLAFVLSSNSLKHC [L5C], for which the protein stability index was 2.26.

As to TGEFHKLPFERLAFVLSSNSLKHC [L5H], the protein stability index turned out to be 1.78.

Take TGEFKKLPFERLAFVLSSNSLKHC [L5K]: the protein stability index turned out to be 1.85.

For the variant TGEFRKLPFERLAFVLSSNSLKHC [L5R], the protein stability index stood at 2.16.

For TGEFAKLPFERLAFVLSSNSLKHC [L5A], the protein stability index is 1.6.

Consider TGEFEKLPFERLAFVLSSNSLKHC [L5E], for which the protein stability index was determined as 1.72.

TGEFLKTPFERLAFVLSSNSLKHC [L7T]: the protein stability index was found to be 3.88.

With TGEFLKKPFERLAFVLSSNSLKHC [L7K], the protein stability index was determined as 1.86.

As for TGEFLKQPFERLAFVLSSNSLKHC [L7Q], the protein stability index was 1.19.

Consider TGEFLKWPFERLAFVLSSNSLKHC [L7W], for which the protein stability index was found to be 4.29.

Turning to TGEFLKIPFERLAFVLSSNSLKHC [L7I], the protein stability index is 3.09.

In the case of TGEFLKEPFERLAFVLSSNSLKHC [L7E], the protein stability index stood at 1.08.

For the variant TGEFLKDPFERLAFVLSSNSLKHC [L7D], the protein stability index is 1.25.

For the variant TGEFLKAPFERLAFVLSSNSLKHC [L7A], the protein stability index amounted to 1.73.

As for TGEFLKPPFERLAFVLSSNSLKHC [L7P], the protein stability index was determined as 2.87.

In the case of TGEFLKLPFENLAFVLSSNSLKHC [R11N], the protein stability index was 3.3.

For TGEFLKLPFEFLAFVLSSNSLKHC [R11F], the protein stability index amounted to 3.1.

Turning to TGEFLKLPFEWLAFVLSSNSLKHC [R11W], the protein stability index was found to be 2.11.

For the variant TGEFLKLPFEALAFVLSSNSLKHC [R11A], the protein stability index came out at 3.93.

Consider TGEFLKLPFEYLAFVLSSNSLKHC [R11Y], for which the protein stability index is 4.43.

Turning to TGEFLKLPFECLAFVLSSNSLKHC [R11C], the protein stability index was 2.12.

Consider TGEFLKLPFEQLAFVLSSNSLKHC [R11Q], for which the protein stability index amounted to 3.1.

In the case of TGEFLKLPFEHLAFVLSSNSLKHC [R11H], the protein stability index was found to be 1.62.

Turning to TGEFLKLPFEKLAFVLSSNSLKHC [R11K], the protein stability index is 3.47.

On to TGEFLKLPFEPLAFVLSSNSLKHC [R11P], for which the protein stability index worked out at 3.17.

Consider TGEFLKLPFETLAFVLSSNSLKHC [R11T], for which the protein stability index came out at 4.01.

With TGEFLKLPFEELAFVLSSNSLKHC [R11E], the protein stability index was 2.48.

Regarding TGEFLKLPFEGLAFVLSSNSLKHC [R11G], the protein stability index came out at 2.54.

Regarding TGEFLKLPFEVLAFVLSSNSLKHC [R11V], the protein stability index was 3.99.

On to TGEFLKLPFEDLAFVLSSNSLKHC [R11D], for which the protein stability index was 2.08.

As to TGEFLKLPFESLAFVLSSNSLKHC [R11S], the protein stability index worked out at 3.23.

For the variant TGEFLKLPFEMLAFVLSSNSLKHC [R11M], the protein stability index was determined as 3.39.

In the case of TGEFLKLPLERLAFVLSSNSLKHC [F9L], the protein stability index stood at 3.5.

Regarding TGEFLKLPQERLAFVLSSNSLKHC [F9Q], the protein stability index turned out to be 2.6.

For TGEFLKLPVERLAFVLSSNSLKHC [F9V], the protein stability index is 2.23.

Take TGEFLKLPEERLAFVLSSNSLKHC [F9E]: the protein stability index was 2.22.

Consider TGEFLKLPRERLAFVLSSNSLKHC [F9R], for which the protein stability index stood at 1.65.

Consider TGEFLKLPAERLAFVLSSNSLKHC [F9A], for which the protein stability index was 2.33.
